Experimental data taken from article PMC8342441.

Biological target: β-arrestin 2-Rluc (UniProt P32121)
Experiment: BRET (β-arrestin 2 recruitment)
Conditions: point at the highest AngII dose, read off a plot
[1] = HEK293 cells, left plot, Log[AII] = -5 M, parent: est. 0.36
[2] = HEK293 cells, Log[AII] = -5 M, parent: est. 0.37
[3] = Log[AngII] = -4 M, parent: est. 0.086
[4] = HEK293 cells, right plot, Log[AII] = -5 M, parent: est. 0.35

For “YFP-tagged WT angiotensin II type 1 receptor (AT1 receptor) (from UniProt P30556) F8.54W”, the response [1] was 0.26 ΔBRET.

With “YFP-tagged WT angiotensin II type 1 receptor (AT1 receptor) (from UniProt P30556) Y7.53I” the response [2] was 0.41 ΔBRET.

With “YFP-tagged WT angiotensin II type 1 receptor (AT1 receptor) (from UniProt P30556) F1.48A; L1.52A; I1.57A” the response [3] was 0.065 ΔBRET.

With “YFP-tagged WT angiotensin II type 1 receptor (AT1 receptor) (from UniProt P30556) N7.49A” the response [4] was 0.25 ΔBRET.

“YFP-tagged WT angiotensin II type 1 receptor (AT1 receptor) (from UniProt P30556) G1.49L” was tested, and the response [1] was 0.05 ΔBRET.

With “YFP-tagged WT angiotensin II type 1 receptor (AT1 receptor) (from UniProt P30556) D2.50N” the response [2] was 0.36 ΔBRET.

In the case of “YFP-tagged WT angiotensin II type 1 receptor (AT1 receptor) (from UniProt P30556) Y7.53A”, the response [4] is reported as 0.055 ΔBRET.

With “YFP-tagged WT angiotensin II type 1 receptor (AT1 receptor) (from UniProt P30556) N3.35A” the response [2] was 0.12 ΔBRET.

With “YFP-tagged WT angiotensin II type 1 receptor (AT1 receptor) (from UniProt P30556) N7.49A; P7.50A; F7.55A” the response [3] was 0.006 ΔBRET.

With “YFP-tagged WT angiotensin II type 1 receptor (AT1 receptor) (from UniProt P30556) F7.55W” the response [1] was 0.09 ΔBRET.

In the case of “YFP-tagged WT angiotensin II type 1 receptor (AT1 receptor) (from UniProt P30556) K8.49A; F8.50A; K8.51A; Y8.53A; F8.54A”, the response [3] is reported as 0.006 ΔBRET.
